Experimental data: patent US20130183334A1

Legend:
Experiment in all cases: cell-based or functional assay
[1] = target: HIV-1 NL4-3 Gag with HIV-1/SIVmac239 p6 chimera 17-27 (HIV-1 (NL4-3); SIVmac239)
[2] = target: HIV-1 NL4-3 Gag with p6 point mutation F17A (HIV-1 (NL4-3)) (UniProt P12493)
[3] = target: HIV-1 NL4-3 Gag with HIV-1/SIVmac239 p6 chimera 17-24 (HIV-1 (NL4-3); SIVmac239)
[4] = target: HIV-1 NL4-3 Gag with HIV-1/SIVmac239 p6 chimera 17-26 (HIV-1 (NL4-3); SIVmac239)
[5] = target: HIV-1 NL4-3 Gag with HIV-1/SIVmac239 p6 chimera 17-38 (HIV-1 (NL4-3); SIVmac239)
[6] = target: HIV-1 NL4-3 Gag with HIV-1/SIVmac239 p6 chimera 17-25 (HIV-1 (NL4-3); SIVmac239)
[7] = target: HIV-1 NL4-3 Gag with HIV-1/SIVmac239 p6 chimera 17-28 (HIV-1 (NL4-3); SIVmac239)
[8] = target: HIV-1 NL4-3 Gag with p6 point mutation F15A (HIV-1 (NL4-3)) (UniProt P12493)
[9] = target: HIV-1 NL4-3 Gag with HIV-1/SIVmac239 p6 chimera 17-23(b) (HIV-1 (NL4-3); SIVmac239)
[10] = target: HIV-1 NL4-3 Gag with HIV-1/SIVmac239 p6 chimera 17-48 (HIV-1 (NL4-3); SIVmac239)

Work on “HIV-1 Vpr, myc-tagged (expression vector pcVpr.myc)” yielded a Vpr packaging into virions (immunoblot of pelleted virions) (fold of wild-type) [1] of 0.33, a Vpr packaging into virions (immunoblot of pelleted virions) (% decrease against wild-type) [2] of 80 and a Vpr packaging into virions (immunoblot of pelleted virions) (fold of wild-type) [3] of 0.33. The Vpr packaging into virions (immunoblot of pelleted virions) (fold of wild-type) [4] was 0.33, the Vpr packaging into virions (immunoblot of pelleted virions) (fold of wild-type) [5] was 0.33 and the Vpr packaging into virions (immunoblot of pelleted virions) (fold of wild-type) [6] was 0.33. The Vpr packaging into virions (immunoblot of pelleted virions) (% of wild-type) [7] was 70, the Vpr packaging into virions (immunoblot of pelleted virions) (% decrease against wild-type) [8] was 80 and the Vpr packaging into virions (immunoblot of pelleted virions) (fold of wild-type) [9] was 0.33. For the same substance, the Vpr packaging into virions (immunoblot of pelleted virions) (fold of wild-type) [10] was 0.33.
